Data set [1] concerns the target T1, DnaD (Bacillus subtilis (strain 168 EMG50), UniProt P39787 1-232).
T1 sequence: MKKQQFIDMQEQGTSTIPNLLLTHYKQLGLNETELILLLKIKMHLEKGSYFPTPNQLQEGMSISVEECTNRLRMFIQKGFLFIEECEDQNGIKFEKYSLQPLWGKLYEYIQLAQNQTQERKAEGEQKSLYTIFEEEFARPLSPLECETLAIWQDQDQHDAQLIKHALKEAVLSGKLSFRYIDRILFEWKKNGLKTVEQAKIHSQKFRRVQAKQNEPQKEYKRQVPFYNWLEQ
Description: EMSA. For orientation: In EMSA bound probe runs differently from free probe, usually more slowly.

The target of data set [2] is T1, DnaD. Put plainly: sedimentation velocity ultracentrifugation.
Data set [3] has as its target T2, B. stearothermophilus DnaB, main replicative ring helicase (B. stearothermophilus, UniProt Q9X4C9 1-454).
T2 sequence (looked up): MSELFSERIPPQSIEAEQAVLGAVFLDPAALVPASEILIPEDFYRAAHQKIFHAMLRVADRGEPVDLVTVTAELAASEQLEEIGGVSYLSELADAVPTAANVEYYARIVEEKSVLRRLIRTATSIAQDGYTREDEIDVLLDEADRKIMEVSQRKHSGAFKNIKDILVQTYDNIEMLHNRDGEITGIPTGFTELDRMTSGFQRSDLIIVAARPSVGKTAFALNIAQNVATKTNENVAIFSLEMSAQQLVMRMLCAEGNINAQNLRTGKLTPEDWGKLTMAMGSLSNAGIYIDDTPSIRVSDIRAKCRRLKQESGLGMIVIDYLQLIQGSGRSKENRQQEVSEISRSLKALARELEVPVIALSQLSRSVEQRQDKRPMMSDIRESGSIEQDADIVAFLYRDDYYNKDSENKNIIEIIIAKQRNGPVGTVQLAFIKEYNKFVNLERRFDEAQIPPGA
Put plainly: SEC.

B1: 33mer oligonucleotide (radiolabeled) (ssDNA)
DNA: TGCATGCCTGCAGGTCGACTCTAGAGGATCCCC
Take B1: the binding result with DnaD [1] was “binds”.

B2: 33mer oligonucleotide (5'-HEX) (ssDNA)
DNA: TGCATGCCTGCAGGTCGACTCTAGAGGATCCCC
Turning to B2, the binding result in the data set with DnaD [2] is “binds”.

B3: B. subtilis DnaI, putative helicase loader (natural protein, UniProt P06567 1-311, looked up)
chain: MEPIGRSLQGVTGRPDFQKRLEQMKEKVMKDQDVQAFLKENEEVIDQKMIEKSLNKLYEYIEQSKNCSYCSEDENCNNLLEGYHPKLVVNGRSIDIEYYECPVKRKLDQQKKQQSLMKSMYIQQDLLGATFQQVDISDPSRLAMFQHVTDFLKSYNETGKGKGLYLYGKFGVGKTFMLAAIANELAEKEYSSMIVYVPEFVRELKNSLQDQTLEEKLNMVKTTPVLMLDDIGAESMTSWVRDEVIGTVLQHRMSQQLPTFFSSNFSPDELKHHFTYSQRGEKEEVKAARLMERILYLAAPIRLDGENRRHP
In the case of B3, in data set [3], the binding result is on record as “binds”.

Values taken from publication PMC3033577 (FEBS letters, 2004).
